The record followed here is patent US20210388087A1 (Chugai, published 2021).

The chains are these.
T1: Human CD3eg linker (human)
T1 construct: Single-chain construct; also called recombinant human CD3
T1 chain: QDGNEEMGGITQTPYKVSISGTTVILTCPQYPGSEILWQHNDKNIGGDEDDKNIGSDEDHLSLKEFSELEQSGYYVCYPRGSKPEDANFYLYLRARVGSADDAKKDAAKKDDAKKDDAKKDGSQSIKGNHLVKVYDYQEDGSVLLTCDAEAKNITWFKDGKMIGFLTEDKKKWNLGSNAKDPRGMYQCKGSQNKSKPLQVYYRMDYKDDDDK

B1: H183/L072 VL M27eV (antibody, name in Kabat numbering, V domains shown)
VH: QVQLVESGGGLVQPGRSLRLSCAASGFTFSNAWMHWVRQAPGKGLEWVAQIKDKGNAYAAYYAPSVKGRFTISRDDSKNSIYLQMNSLKTEDTAVYYCHYVHYASASTVLPAFGVDAWGQGTTVTVSS
VL: DIVMTQSPLSLPVTPGEPASISCQASQELVHVNRNTYLHWYQQKPGQAPRLLIYKVSNRFPGVPDRFSGSGSGTDFTLKISRVEAEDVGVYYCAQGTSVPFTFGQGTKLEIK
B2: H183/L072 VL N30D (antibody, name in Kabat numbering, V domains shown)
VH: QVQLVESGGGLVQPGRSLRLSCAASGFTFSNAWMHWVRQAPGKGLEWVAQIKDKGNAYAAYYAPSVKGRFTISRDDSKNSIYLQMNSLKTEDTAVYYCHYVHYASASTVLPAFGVDAWGQGTTVTVSS
VL: DIVMTQSPLSLPVTPGEPASISCQASQELVHMNRDTYLHWYQQKPGQAPRLLIYKVSNRFPGVPDRFSGSGSGTDFTLKISRVEAEDVGVYYCAQGTSVPFTFGQGTKLEIK
B3: H183/L072 VL N28S (antibody, name in Kabat numbering, V domains shown)
VH: QVQLVESGGGLVQPGRSLRLSCAASGFTFSNAWMHWVRQAPGKGLEWVAQIKDKGNAYAAYYAPSVKGRFTISRDDSKNSIYLQMNSLKTEDTAVYYCHYVHYASASTVLPAFGVDAWGQGTTVTVSS
VL: DIVMTQSPLSLPVTPGEPASISCQASQELVHMSRNTYLHWYQQKPGQAPRLLIYKVSNRFPGVPDRFSGSGSGTDFTLKISRVEAEDVGVYYCAQGTSVPFTFGQGTKLEIK
B4: H183/L072 VL N28Q (antibody, name in Kabat numbering, V domains shown)
VH: QVQLVESGGGLVQPGRSLRLSCAASGFTFSNAWMHWVRQAPGKGLEWVAQIKDKGNAYAAYYAPSVKGRFTISRDDSKNSIYLQMNSLKTEDTAVYYCHYVHYASASTVLPAFGVDAWGQGTTVTVSS
VL: DIVMTQSPLSLPVTPGEPASISCQASQELVHMQRNTYLHWYQQKPGQAPRLLIYKVSNRFPGVPDRFSGSGSGTDFTLKISRVEAEDVGVYYCAQGTSVPFTFGQGTKLEIK
B5: H183/L072 VL M27eW (antibody, name in Kabat numbering, V domains shown)
VH: QVQLVESGGGLVQPGRSLRLSCAASGFTFSNAWMHWVRQAPGKGLEWVAQIKDKGNAYAAYYAPSVKGRFTISRDDSKNSIYLQMNSLKTEDTAVYYCHYVHYASASTVLPAFGVDAWGQGTTVTVSS
VL: DIVMTQSPLSLPVTPGEPASISCQASQELVHWNRNTYLHWYQQKPGQAPRLLIYKVSNRFPGVPDRFSGSGSGTDFTLKISRVEAEDVGVYYCAQGTSVPFTFGQGTKLEIK
B6: H183/L072 VL N28H (antibody, name in Kabat numbering, V domains shown)
VH: QVQLVESGGGLVQPGRSLRLSCAASGFTFSNAWMHWVRQAPGKGLEWVAQIKDKGNAYAAYYAPSVKGRFTISRDDSKNSIYLQMNSLKTEDTAVYYCHYVHYASASTVLPAFGVDAWGQGTTVTVSS
VL: DIVMTQSPLSLPVTPGEPASISCQASQELVHMHRNTYLHWYQQKPGQAPRLLIYKVSNRFPGVPDRFSGSGSGTDFTLKISRVEAEDVGVYYCAQGTSVPFTFGQGTKLEIK
B7: H183/L072 VL M27eY (antibody, name in Kabat numbering, V domains shown)
VH: QVQLVESGGGLVQPGRSLRLSCAASGFTFSNAWMHWVRQAPGKGLEWVAQIKDKGNAYAAYYAPSVKGRFTISRDDSKNSIYLQMNSLKTEDTAVYYCHYVHYASASTVLPAFGVDAWGQGTTVTVSS
VL: DIVMTQSPLSLPVTPGEPASISCQASQELVHYNRNTYLHWYQQKPGQAPRLLIYKVSNRFPGVPDRFSGSGSGTDFTLKISRVEAEDVGVYYCAQGTSVPFTFGQGTKLEIK
B8: H183/L072 VL N28K (antibody, name in Kabat numbering, V domains shown)
VH: QVQLVESGGGLVQPGRSLRLSCAASGFTFSNAWMHWVRQAPGKGLEWVAQIKDKGNAYAAYYAPSVKGRFTISRDDSKNSIYLQMNSLKTEDTAVYYCHYVHYASASTVLPAFGVDAWGQGTTVTVSS
VL: DIVMTQSPLSLPVTPGEPASISCQASQELVHMKRNTYLHWYQQKPGQAPRLLIYKVSNRFPGVPDRFSGSGSGTDFTLKISRVEAEDVGVYYCAQGTSVPFTFGQGTKLEIK
B9: H183/L072 VL N28G (antibody, name in Kabat numbering, V domains shown)
VH: QVQLVESGGGLVQPGRSLRLSCAASGFTFSNAWMHWVRQAPGKGLEWVAQIKDKGNAYAAYYAPSVKGRFTISRDDSKNSIYLQMNSLKTEDTAVYYCHYVHYASASTVLPAFGVDAWGQGTTVTVSS
VL: DIVMTQSPLSLPVTPGEPASISCQASQELVHMGRNTYLHWYQQKPGQAPRLLIYKVSNRFPGVPDRFSGSGSGTDFTLKISRVEAEDVGVYYCAQGTSVPFTFGQGTKLEIK
B10: H183/L072 VL N28A (antibody, name in Kabat numbering, V domains shown)
VH: QVQLVESGGGLVQPGRSLRLSCAASGFTFSNAWMHWVRQAPGKGLEWVAQIKDKGNAYAAYYAPSVKGRFTISRDDSKNSIYLQMNSLKTEDTAVYYCHYVHYASASTVLPAFGVDAWGQGTTVTVSS
VL: DIVMTQSPLSLPVTPGEPASISCQASQELVHMARNTYLHWYQQKPGQAPRLLIYKVSNRFPGVPDRFSGSGSGTDFTLKISRVEAEDVGVYYCAQGTSVPFTFGQGTKLEIK
B11: H183/L072 VL N28E (antibody, name in Kabat numbering, V domains shown)
VH: QVQLVESGGGLVQPGRSLRLSCAASGFTFSNAWMHWVRQAPGKGLEWVAQIKDKGNAYAAYYAPSVKGRFTISRDDSKNSIYLQMNSLKTEDTAVYYCHYVHYASASTVLPAFGVDAWGQGTTVTVSS
VL: DIVMTQSPLSLPVTPGEPASISCQASQELVHMERNTYLHWYQQKPGQAPRLLIYKVSNRFPGVPDRFSGSGSGTDFTLKISRVEAEDVGVYYCAQGTSVPFTFGQGTKLEIK
B12: H183/L072 VL N28D (antibody, name in Kabat numbering, V domains shown)
VH: QVQLVESGGGLVQPGRSLRLSCAASGFTFSNAWMHWVRQAPGKGLEWVAQIKDKGNAYAAYYAPSVKGRFTISRDDSKNSIYLQMNSLKTEDTAVYYCHYVHYASASTVLPAFGVDAWGQGTTVTVSS
VL: DIVMTQSPLSLPVTPGEPASISCQASQELVHMDRNTYLHWYQQKPGQAPRLLIYKVSNRFPGVPDRFSGSGSGTDFTLKISRVEAEDVGVYYCAQGTSVPFTFGQGTKLEIK
B13: H183/L072 VL N30A (antibody, name in Kabat numbering, V domains shown)
VH: QVQLVESGGGLVQPGRSLRLSCAASGFTFSNAWMHWVRQAPGKGLEWVAQIKDKGNAYAAYYAPSVKGRFTISRDDSKNSIYLQMNSLKTEDTAVYYCHYVHYASASTVLPAFGVDAWGQGTTVTVSS
VL: DIVMTQSPLSLPVTPGEPASISCQASQELVHMNRATYLHWYQQKPGQAPRLLIYKVSNRFPGVPDRFSGSGSGTDFTLKISRVEAEDVGVYYCAQGTSVPFTFGQGTKLEIK
B14: H183/L072 VL N28T (antibody, name in Kabat numbering, V domains shown)
VH: QVQLVESGGGLVQPGRSLRLSCAASGFTFSNAWMHWVRQAPGKGLEWVAQIKDKGNAYAAYYAPSVKGRFTISRDDSKNSIYLQMNSLKTEDTAVYYCHYVHYASASTVLPAFGVDAWGQGTTVTVSS
VL: DIVMTQSPLSLPVTPGEPASISCQASQELVHMTRNTYLHWYQQKPGQAPRLLIYKVSNRFPGVPDRFSGSGSGTDFTLKISRVEAEDVGVYYCAQGTSVPFTFGQGTKLEIK

For this assay, the target named is T1, Human CD3eg linker. Kind of assay: SPR; fold vs parent H183/L072. In general terms: Surface plasmon resonance follows binding to a sensor surface in real time, without labels.
In the case of B1, the “fold change of affinity” value stood at 0.8 fold.
The figure for B2 is 0.1 fold; for B3 it is 0 fold; for B4 it is 0 fold.
The figure for B5 is 1 fold; for B6 it is 0 fold; for B7 it is 0.9 fold.
The figure for B8 is 0 fold; for B9 it is 0 fold.
As to B10, the “fold change of affinity” value came out at 0 fold.
The figure for B11 is 0 fold.
The figure for B12 is 0 fold.
On to B13, for which the “fold change of affinity” value came to 0.3 fold.
The figure for B14 is 0 fold.
